Measurements published in patent US20160046957A1.

Biological target: human coagulation Factor X (human) (UniProt P00742)
Test: cell-based or functional assay

Chain of UniProt P00742 (P00742 41-488): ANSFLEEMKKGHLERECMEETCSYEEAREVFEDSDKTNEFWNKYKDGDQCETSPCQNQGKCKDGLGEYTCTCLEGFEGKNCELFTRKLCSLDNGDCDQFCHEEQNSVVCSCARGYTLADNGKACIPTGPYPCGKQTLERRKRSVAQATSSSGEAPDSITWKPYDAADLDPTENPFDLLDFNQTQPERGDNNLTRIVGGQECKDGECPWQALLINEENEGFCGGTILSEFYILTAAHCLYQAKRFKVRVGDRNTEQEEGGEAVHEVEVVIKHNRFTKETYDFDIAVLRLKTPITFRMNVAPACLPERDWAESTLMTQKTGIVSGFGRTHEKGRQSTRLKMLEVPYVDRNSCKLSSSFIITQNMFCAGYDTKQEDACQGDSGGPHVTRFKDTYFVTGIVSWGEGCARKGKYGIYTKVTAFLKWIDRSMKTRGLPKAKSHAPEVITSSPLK

human furin (from UniProt P09958 108-794) (enzyme)
estimated furin concentration in the cell culture medium resulting in equal or higher 90% fully processed FX of total FX (Emax model on Western blot densitometry and furin activity assay): > 57 U/mL
